Common to all, as to format: biochemical, Escherichia coli
Substrate in data set [1]: CC(=O)N[C@H]1[C@H]2O[C@@](C(=O)O)(C[C@@H]1O)O[C@@H]2[C@H](O)CO
Description: purified protein. The following applies: 50 µM NAD+, 30 mM HEPES pH 7.5, 10 mM KCl, 1 mM MgCl2, 37°C, sigmoidal, Hill coefficient 2.20.

Substrate in data set [2]: [H][C@@]1([C@H](O)[C@H](O)CO)OC(C(=O)O)=C[C@H](O)[C@H]1NC(C)=O
Description: purified protein. The following applies: 50 µM NAD+, 30 mM HEPES pH 7.5, 10 mM KCl, 1 mM MgCl2, 37°C, sigmoidal, Hill coefficient 2.59.

Substrate in data set [3]: NC(=O)c1ccc[n+]([C@@H]2O[C@H](COP(=O)(O)OP(=O)(O)OC[C@H]3O[C@@H](n4cnc5c(N)ncnc54)[C@H](O)[C@@H]3O)[C@@H](O)[C@H]2O)c1
Description: Neu5Ac formation versus NAD+ concentration, endpoint assay. Particulars: 1 mM 2,7-AN, 0.45 µM YjhC, 30 mM HEPES pH 7.5, 10 mM KCl, 1 mM MgCl2, 37°C, Ka is a half-activation constant, not an association constant, varied: cofactor.

B1: YjhC (Escherichia coli K-12) (protein)
chain: MINYGVVGVGYFGAELARFMNMHDNAKITCVYDPENGENIARELQCINMSSLDALVSSKLVDCVIVATPNYLHKEPVIKAAKNKKHVFCEKPIALSYEDCVDMVKACKEAGVTFMAGHIMNFFNGVQYARKLIKEGVIGEILSCHTKRNGWENKQERLSWKKMKEQSGGHLYHHIHELDCVQHLLGEIPETVTMIGGNLAHSGPGFGNEDDMLFMTLEFPSGKLATLEWGSAFNWPEHYVIINGTKGSIKIDMQETAGSLRIGGQTKHFLVHETQEEDDDRRKGNMTSEMDGAIAYGHPGKKTPLWLASLIRKETLFLHNILCGAKPEEDYIDLLNGEAAMSAIATADAATLSRSQDRKVKISEIIKHTSVM
notes: full-length ORF from ASKA library in pCA24N, N-terminal His6-tag kept, expressed in E. coli BL21
For the protein B1, the K0.5 in “purified protein [1]” is recorded as 0.45 mM; in the data set “purified protein [2]”, 0.30 mM; in data set [3], 0.84 µM.
